Test results taken from patent US20090137485A1, “Antigens Targeted by Pathogenic T Cells in Type 1 Diabetes and Uses Thereof” (priority 2005, published 2009).

Experiments:
HLA-A2 molecule = HLA-A2 molecule (Homo sapiens, UniProt P04439, D140Y/D185E/D98H/E176V/E277Q/G131W/G231S/I119V/I121R/I166T/I218V/L300P/L318F/N151K/N90K/P208A/P217A/Q86G/Q94H/R138H/R169H/T345S); conditions: from the literature (Panagiotopoulos et al., 2003; Regner et al., 1996); cited from earlier work
[1] = biological target: T1, human HLA-A2 MHC class I molecule (HLA-A*0201) on T2 cells (human); assay: peptide library screen; HLA-A2 restriction on T2 cells
T1 construct: Surface HLA-A2 was read with FITC anti-HLA-A2 mAb BB7.2; also called HLA-A2.1

[2] = biological target: T1, human HLA-A2 MHC class I molecule …; assay: descriptor in the legend of an IFN-gamma ELISPOT figure (T2 cells as APC)

For KLQVFLIVL [PreproIAPP5-13], the “binding to HLA-A2” value (HLA-A2 molecule) is listed as “HLA-A2-binding”.

FGIDLLWSV (also called murine IGRP 228-236) [mIGRP228-236 (FGIDLLWSV)]: binds [1].

VLFGLGFAI (also called murine IGRP 265-273) [mIGRP265-273 (VLFGLGFAI)]: binds [2].

ALIPYCVHM (also called murine IGRP 337-345) [mIGRP337-345 (ALIPYCVHM)]: binds [2].
